Data as given in patent publication US12692524B2, “Sialyltransferases and their use in producing sialylated oligosaccharides” (Chr. Hansen A/S, priority 2017, dated 2026).

What was measured:
[1] = In vitro sialylation of LNT by protein extracts, LST-a/-b quantified by LC-MS/MS; type: biochemical; details: for Ranking in the screening for sialylation of LNT: in words
Procedure, shortened: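 E. coli BL21(DE3) crude extracts overexpressing sialyltransferases (IPTG 0.3 mM, 12–16 h at 30 °C) incubated 16 h with 5 mM LNT and 10 mM CMP-Neu5Ac in 50 mM Tris-HCl pH 7.5, 5 mM MgCl2. LST-a and LST-b measured by HILIC LC-MS/MS, MRM in ESI negative mode, against commercial standards.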

[2] = In vitro kinetics (Km, Vmax), donor substrate CMP-Neu5Ac; type: biochemical; details: for Km / Vmax CMP-Neu5Ac: 30° C., pH7.5, protein extract
Experimental: (§1) To rank the best performing sialyltransferases, their Km values for donor and acceptor substrates were determined in vitro. Escherichia coli BL21(DE3) strain #287 was used for overproduction of the enzymes. Cells were incubated in 100 ml 2YT medium in shaking flasks supplemented with 100 μg m^−1 ampicillin at 30° C. until an OD600 of 0.3 was reached. Then, 0.3 mM IPTG was added and the incubation was continued for 12 to 16 hours. Cells were harvested by centrifugation and mechanically disrupted in a defined volume of 50 mM Tris-HCl pH7.5 using glass beads. The protein extract was kept on ice until the assay started. The in vitro assay was carried out in a total volume of 50 μl including 50 mM Tris-HCl pH7.5, 5 mM MgCl2 and varying concentrations of CMP-Neu5Ac (0.05-30 mM) as well as of lactose or LNT (0.1-50 mM). The assay started with the addition of 35 to 750 μg protein extract. After 1 to 10 minutes of incubation at 30° C., the assay was inactivated at 95° C. for 5 minutes. Product formation was determined by mass spectrometry. Data were evaluated using the enzyme kinetic module of SigmaPlot v12.5 to calculate Km and Vmax.
(§2) Their kinetic parameters for CMP-Neu5Ac and LNT as well as lactose are depicted in Table 6.

[3] = In vitro kinetics (Km, Vmax), acceptor substrate lactose; type: biochemical; details: 30° C., pH7.5, protein extract
Experimental: as §1, §2

[4] = In vitro kinetics (Km, Vmax), acceptor substrate LNT; type: biochemical; details: 30° C., pH7.5, protein extract
Experimental: as §1, §2

[5] = In vivo screening in E. coli #1363/#1730 with lactose as acceptor, sialyllactose identified by TLC; type: cell-based, Escherichia coli BL21(DE3); details: for Production of sialyllactose in-vivo: 1.5 mM lactose, 72 to 96 hours, qualitative via TLC
Procedure, shortened: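 E. coli BL21(DE3) #1363/#1730 expressing sialyltransferases were grown at 30 °C in mineral salts medium with 2% glucose and induced with 0.3 mM IPTG. After 1 h, 1.5 mM lactose was added, plus 1.5 mM sialic acid for #1730, and incubation ran 72–96 h. Cell lysates were analysed by silica TLC with thymol staining.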

[6] = 5 mM LNT, 10 mM CMP-Neu5Ac, 16 hours, LC-MS/MS, relative quantity, n.d.: not detectable

B1: SiaT8: sialyltransferase of Photobacterium sp. JT-ISH-224, acc. BAF92025, SEQ ID NO: 3 (protein, listed as Photobacterium sp.)
chain: MGCNSDSNHNNSDGNITKNKTIEVYVDRATLPTIQQMTQIINENSNNKKLISWSRYPINDEELLESINGSFFKNNSELIKSLDSMILTNDIKKVIINGNTLWAADVVNIIKSIEAFGKKTEIELNFYDDGSAEYVRLYDFSKLPESEQEYKISLSKDNILSSINGTQPFENVVENIYGFSQLYPTTYHMLRADIFETNLPLRSLKGVLSNNIKQMKWDYFKTFNSQQKDKFYNFTGFNPDEIMEQYKASPNKNFIFVGTNSGTATAEQQIDILTEAKNPNSPIITKSIQGFDLFFKGHPSATYNKQIIDAHNMIEIYNKIPFEALIMTDALPDAVGGMGSSVFFSLPNTVENKFIFYKSDTDIENNALIQVMIELNIVNRNDVKLISDLQ
[1]; [6]
  Relative efficacy of sialyltransferases regarding in-vitro production of sialyllacto-N-tetraoses: LST-a: 4.00 × 10^3
[1]
  Ranking in the screening for sialylation of LNT: best performing α-2,3-sialyltransferases for LST-a production
[2]
  Km: 4 mM
  Vmax CMP-Neu5Ac: 0.35 µmol/min
[3]
  Km: 4.3 mM
  Vmax Lactose: 0.37 µmol/min
[4]
  Km: 4.2 mM
  Vmax LNT: 0.32 µmol/min

B2: SiaT20: sialyltransferase of Campylobacter coli, acc. YP_008473374, SEQ ID NO: 1 (protein, listed as Campylobacter coli)
chain: MQNVIIAGNGPSLQSINYQRLPKEYDIFRCNQFYFEDKYYLGKNIKAAFFNPYPFLQQYHTAKQLVFNNEYKIENIFCSTFNLPFIEKDNFINKFYDFFPDAKLGHKIIENLKEFYAYIKYNEIYLNKRITSGIYMCAIAIALGYKNIYLCGIDFYEGETIYPFKAMSKNIKKIFPWIKDFNPSNFHSKEYDIEILKLLESIYKVNIYALCDNSALANYFPLLVNTDNSFVLENKSDDCINDILLTNNTPGINFYKSQIQVNNTEILLLNFQNMISAKENEISNLNKILQDSYKTINTKENEISNLNKILQDSYKTINTKENEISNLNKILQDKDKLLIVKENLLNFKSRHGKAKFRIQNQLSYKLGQAMMVNSKSLLGYIRMPFVLSYIKDKHKQEQKIYQEKIKKDPSLTLPPLEDYPDYKEALKEKECLTYRLGQTLIKADQEWYKGGYVKMWFEIKKLKKEYKKK
[1]; [6]
  Relative efficacy of sialyltransferases regarding in-vitro production of sialyllacto-N-tetraoses: LST-a: 1.00 × 10^4
[1]
  Ranking in the screening for sialylation of LNT: best performing α-2,3-sialyltransferases for LST-a production
[5]
  Production of sialyllactose in-vivo: 3′-SL
[2]; kinetic parameters for CMP-Neu5Ac, LNT and lactose
  Michaelis-Menten behaviour: does not follow a Michaelis-Menten kinetic

B3: SiaT6: sialyltransferase of Photobacterium sp. JT-ISH-224, acc. BAF92026, SEQ ID NO: 29 (protein, listed as Photobacterium sp.)
chain: MSEENTQSIIKNDINKTIIDEEYVNLEPINQSNISFTKHSWVQTCGTQQLLTEQNKESISLSVVAPRLDDDEKYCFDFNGVSNKGEKYITKVTLNVVAPSLEVYVDHASLPTLQQLMDIIKSEEENPTAQRYIAWGRIVPTDEQMKELNITSFALINNHTPADLVQEIVKQAQTKHRLNVKLSSNTAHSFDNLVPILKELNSFNNVTVTNIDLYDDGSAEYVNLYNWRDTLNKTDNLKIGKDYLEDVINGINEDTSNTGTSSVYNWQKLYPANYHFLRKDYLTLEPSLHELRDYIGDSLKQMQWDGFKKFNSKQQELFLSIVNFDKQKLQNEYNSSNLPNFVFTGTTVWAGNHEREYYAKQQINVINNAINESSPHYLGNSYDLFFKGHPGGGIINTLIMQNYPSMVDIPSKISFEVLMMTDMLPDAVAGIASSLYFTIPAEKIKFIVFTSTETITDRETALRSPLVQVMIKLGIVKEENVLFWADLPNCETGVCIAV
[1]; [6]
  Relative efficacy of sialyltransferases regarding in-vitro production of sialyllacto-N-tetraoses: LST-b: 300
[1]
  Ranking in the screening for sialylation of LNT: sialylate LNT most efficiently among the tested α-2,6-sialyltransferases
[5]
  Production of sialyllactose in-vivo: 6′-SL
[5]; in words
  Described activity confirmed in the lactose screening: could be confirmed
[2]
  Km: 2 mM
  Vmax CMP-Neu5Ac: 0.16 µmol/min
[3]
  Km: 5.6 mM
  Vmax Lactose: 0.20 µmol/min
[4]
  Km: 5.5 mM
  Vmax LNT: 0.13 µmol/min
